Key:
Experiment in all cases: SEC-MALS; Superdex 200 Increase 5/150 GL; proteins at 3 mg/ml; 20 mM Tris-HCl pH 8.0, 300 mM NaCl, 5% glycerol, 2 mM 2-mercaptoethanol
[1] = target: VvRraA1 (RraA ortholog 1 of Vibrio vulnificus), hexahistidine-tagged (Vibrio vulnificus MO6-24/O)
[2] = target: VvRraA2 (RraA ortholog 2 of Vibrio vulnificus), hexahistidine-tagged (Vibrio vulnificus MO6-24/O)
[3] = target: the molecule itself

VvRraA1 (RraA ortholog 1 of Vibrio vulnificus), hexahistidine-tagged (natural protein)
stoichiometry N [1]: 6

VvRraA2 (RraA ortholog 2 of Vibrio vulnificus), hexahistidine-tagged (natural protein)
stoichiometry N [2]: 3

B1: E. coli RraA (natural protein)
chain: MKYDTSELCDIYQEDVNVVEPLFSNFGGRASFGGQIITVKCFEDNGLLYDLLEQNGRGRVLVVDGGGSVRRALVDAELARLAVQNEWEGLVIYGAVRQVDDLEELDIGIQAMAAIPVGAAGEGIGESDVRVNFGGVTFFSGDHLYADNTGIILSEDPLDIE
notes: RraA, regulator of ribonuclease activity A, Escherichia coli; the construct is not described here; Hexamer by SEC-MALS (87.05 kDa); also called EcRraA
stoichiometry N [3]: 6

— publication PMC5738090, “Functional implications of hexameric assembly of RraA proteins from Vibrio vulnificus” (PLoS ONE, 2017)
